± gives the uncertainty stated by the source.

The data set is described as follows: abundance fitness (aPCA) (normalised: wild type 0, dead -1); higher = more abundant; growth selection in yeast, the domain comes from the species named. As to conditions: Homo sapiens.
Turning to “NEDD4-like E3 ubiquitin-protein ligase WWP2 P448A, O00308”, the abundance fitness is 0.008 ± 0.044.
Under “NEDD4-like E3 ubiquitin-protein ligase WWP2 P448C, O00308” stands -0.216 ± 0.074; under “NEDD4-like E3 ubiquitin-protein ligase WWP2 P448D, O00308”, 0.09 ± 0.059.
“NEDD4-like E3 ubiquitin-protein ligase WWP2 P448E, O00308” showed an abundance fitness of 0.045 ± 0.062.
Under “NEDD4-like E3 ubiquitin-protein ligase WWP2 P448F, O00308” stands 0.015 ± 0.04; under “NEDD4-like E3 ubiquitin-protein ligase WWP2 P448G, O00308”, -0.046 ± 0.054.
“NEDD4-like E3 ubiquitin-protein ligase WWP2 P448H, O00308” came in with an abundance fitness of 0.043 ± 0.046.
Under “NEDD4-like E3 ubiquitin-protein ligase WWP2 P448I, O00308” stands -0.13 ± 0.071.
Under “NEDD4-like E3 ubiquitin-protein ligase WWP2 P448K, O00308” stands 0.108 ± 0.067.
The value for “NEDD4-like E3 ubiquitin-protein ligase WWP2 P448L, O00308” was -0.013 ± 0.038; that for “NEDD4-like E3 ubiquitin-protein ligase WWP2 P448M, O00308” was 0.088 ± 0.068; that for “NEDD4-like E3 ubiquitin-protein ligase WWP2 P448N, O00308” was 0.071 ± 0.072.
For “NEDD4-like E3 ubiquitin-protein ligase WWP2 P448Q, O00308”, the abundance fitness was determined as 0.029 ± 0.054.
The substance “NEDD4-like E3 ubiquitin-protein ligase WWP2 P448R, O00308” came in with an abundance fitness of -0.033 ± 0.047.
In turn, “NEDD4-like E3 ubiquitin-protein ligase WWP2 P448S, O00308” showed an abundance fitness of -0.001 ± 0.037.
Turning to “NEDD4-like E3 ubiquitin-protein ligase WWP2 P448T, O00308”, the abundance fitness was found to be 0.001 ± 0.05.
Under “NEDD4-like E3 ubiquitin-protein ligase WWP2 P448V, O00308” stands 0.023 ± 0.055; under “NEDD4-like E3 ubiquitin-protein ligase WWP2 P448W, O00308”, -0.109 ± 0.062.
Under “NEDD4-like E3 ubiquitin-protein ligase WWP2 P448Y, O00308” stands -0.149 ± 0.056.
Under “NEDD4-like E3 ubiquitin-protein ligase WWP2 P475A, O00308” stands -0.837 ± 0.037; under “NEDD4-like E3 ubiquitin-protein ligase WWP2 P475C, O00308”, -1.06 ± 0.16.
Substance “NEDD4-like E3 ubiquitin-protein ligase WWP2 P475D, O00308” yielded an abundance fitness of -0.867 ± 0.14.
Under “NEDD4-like E3 ubiquitin-protein ligase WWP2 P475E, O00308” stands -0.785 ± 0.15.
The value for “NEDD4-like E3 ubiquitin-protein ligase WWP2 P475F, O00308” was -0.88 ± 0.1; that for “NEDD4-like E3 ubiquitin-protein ligase WWP2 P475G, O00308” was -1 ± 0.042.
Under “NEDD4-like E3 ubiquitin-protein ligase WWP2 P475H, O00308” stands -0.813 ± 0.15.
For “NEDD4-like E3 ubiquitin-protein ligase WWP2 P475I, O00308”, the abundance fitness is -0.523 ± 0.11.
The value for “NEDD4-like E3 ubiquitin-protein ligase WWP2 P475K, O00308” was -1.24 ± 0.27; that for “NEDD4-like E3 ubiquitin-protein ligase WWP2 P475L, O00308” was -0.876 ± 0.04.
The value for “NEDD4-like E3 ubiquitin-protein ligase WWP2 P475M, O00308” was -0.574 ± 0.062.
For “NEDD4-like E3 ubiquitin-protein ligase WWP2 P475N, O00308”, the abundance fitness was -0.941 ± 0.13.
The value for “NEDD4-like E3 ubiquitin-protein ligase WWP2 P475Q, O00308” was -0.836 ± 0.11; that for “NEDD4-like E3 ubiquitin-protein ligase WWP2 P475R, O00308” was -0.933 ± 0.041; that for “NEDD4-like E3 ubiquitin-protein ligase WWP2 P475S, O00308” was -0.852 ± 0.054.
The substance “NEDD4-like E3 ubiquitin-protein ligase WWP2 P475T, O00308” came in with an abundance fitness of -1.36 ± 0.2.
Under “NEDD4-like E3 ubiquitin-protein ligase WWP2 P475V, O00308” stands -0.631 ± 0.038.
Under “NEDD4-like E3 ubiquitin-protein ligase WWP2 P475W, O00308” stands -0.829 ± 0.067; under “NEDD4-like E3 ubiquitin-protein ligase WWP2 P475Y, O00308”, -0.984 ± 0.15; under “NEDD4-like E3 ubiquitin-protein ligase WWP2 P477A, O00308”, 0.076 ± 0.052.
Under “NEDD4-like E3 ubiquitin-protein ligase WWP2 P477C, O00308” stands -0.084 ± 0.066; under “NEDD4-like E3 ubiquitin-protein ligase WWP2 P477D, O00308”, -0.009 ± 0.059.
Take “NEDD4-like E3 ubiquitin-protein ligase WWP2 P477E, O00308”: the abundance fitness stood at 0.001 ± 0.05.
Substance “NEDD4-like E3 ubiquitin-protein ligase WWP2 P477F, O00308” had an abundance fitness of -0.091 ± 0.073.
“NEDD4-like E3 ubiquitin-protein ligase WWP2 P477G, O00308” gave an abundance fitness of -0.019 ± 0.031.
The substance “NEDD4-like E3 ubiquitin-protein ligase WWP2 P477I, O00308” showed an abundance fitness of 0.13 ± 0.075.
Under “NEDD4-like E3 ubiquitin-protein ligase WWP2 P477K, O00308” stands -0.037 ± 0.052.
The value for “NEDD4-like E3 ubiquitin-protein ligase WWP2 P477L, O00308” was -0.038 ± 0.034; that for “NEDD4-like E3 ubiquitin-protein ligase WWP2 P477M, O00308” was -0.011 ± 0.05; that for “NEDD4-like E3 ubiquitin-protein ligase WWP2 P477N, O00308” was -0.081 ± 0.053.
Turning to “NEDD4-like E3 ubiquitin-protein ligase WWP2 P477Q, O00308”, the abundance fitness was -0.394 ± 0.1.
The value for “NEDD4-like E3 ubiquitin-protein ligase WWP2 P477S, O00308” was -0.02 ± 0.037; that for “NEDD4-like E3 ubiquitin-protein ligase WWP2 P477T, O00308” was -0.215 ± 0.068.
The value for “NEDD4-like E3 ubiquitin-protein ligase WWP2 P477V, O00308” was 0.037 ± 0.034; that for “NEDD4-like E3 ubiquitin-protein ligase WWP2 P477W, O00308” was -0.138 ± 0.048.
“NEDD4-like E3 ubiquitin-protein ligase WWP2 P477Y, O00308” came in with an abundance fitness of -0.145 ± 0.063.
Under “NEDD4-like E3 ubiquitin-protein ligase WWP2 P488A, O00308” stands -0.31 ± 0.037; under “NEDD4-like E3 ubiquitin-protein ligase WWP2 P488C, O00308”, -0.049 ± 0.058; under “NEDD4-like E3 ubiquitin-protein ligase WWP2 P488D, O00308”, 0.033 ± 0.053.
Under “NEDD4-like E3 ubiquitin-protein ligase WWP2 P488E, O00308” stands 0.018 ± 0.055; under “NEDD4-like E3 ubiquitin-protein ligase WWP2 P488F, O00308”, -0.127 ± 0.064; under “NEDD4-like E3 ubiquitin-protein ligase WWP2 P488G, O00308”, -0.032 ± 0.04.
Under “NEDD4-like E3 ubiquitin-protein ligase WWP2 P488H, O00308” stands 0.024 ± 0.062.
For the substance “NEDD4-like E3 ubiquitin-protein ligase WWP2 P488I, O00308”, the abundance fitness was -0.163 ± 0.069.
In the case of “NEDD4-like E3 ubiquitin-protein ligase WWP2 P488K, O00308”, the abundance fitness is -0.04 ± 0.053.
Under “NEDD4-like E3 ubiquitin-protein ligase WWP2 P488L, O00308” stands -0.063 ± 0.038.
Under “NEDD4-like E3 ubiquitin-protein ligase WWP2 P488M, O00308” stands -0.018 ± 0.057; under “NEDD4-like E3 ubiquitin-protein ligase WWP2 P488N, O00308”, 0.021 ± 0.051.
The value for “NEDD4-like E3 ubiquitin-protein ligase WWP2 P488Q, O00308” was -0.028 ± 0.033; that for “NEDD4-like E3 ubiquitin-protein ligase WWP2 P488T, O00308” was -0.044 ± 0.048; that for “NEDD4-like E3 ubiquitin-protein ligase WWP2 P488V, O00308” was -0.037 ± 0.042.
“NEDD4-like E3 ubiquitin-protein ligase WWP2 P488W, O00308”: the abundance fitness is -0.144 ± 0.048.
In the case of “NEDD4-like E3 ubiquitin-protein ligase WWP2 P488Y, O00308”, the abundance fitness was -0.066 ± 0.043.
The value for “NEDD4-like E3 ubiquitin-protein ligase WWP2 Q442A, O00308” was -0.07 ± 0.035; that for “NEDD4-like E3 ubiquitin-protein ligase WWP2 Q442C, O00308” was 0.121 ± 0.079.
Under “NEDD4-like E3 ubiquitin-protein ligase WWP2 Q442D, O00308” stands 0.079 ± 0.066; under “NEDD4-like E3 ubiquitin-protein ligase WWP2 Q442E, O00308”, 0.069 ± 0.04.
Under “NEDD4-like E3 ubiquitin-protein ligase WWP2 Q442F, O00308” stands 0.128 ± 0.059; under “NEDD4-like E3 ubiquitin-protein ligase WWP2 Q442G, O00308”, -0.071 ± 0.052.
“NEDD4-like E3 ubiquitin-protein ligase WWP2 Q442H, O00308” yielded an abundance fitness of -0.108 ± 0.086.

The values above are taken from the Human Domainome abundance scans (Beltran et al. 2025).
